Biological target: HLA-DR on human peripheral blood mononuclear cells (human)
Assay: cell-based or functional assay

frequency of CD3+ class II-DR+ cells, IMMU-114-treated MLR, representative result: 4%
frequency of CD3+ class II-DR+ cells, IMMU-114-treated resting PBMCs, representative result: 0.5%
frequency of CD11c+ class II-DR+ cells, IMMU-114-treated MLR, representative result: 2.3%
frequency of CD11c+ class II-DR+ cells, IMMU-114-treated resting PBMCs, representative result: 0.4%
frequency of CD14+ class II-DR+ cells, IMMU-114-treated MLR, representative result: 2.2%
frequency of CD14+ class II-DR+ cells, IMMU-114-treated resting PBMCs, representative result: 0.5%
reduction of live mDC1 in human PBMCs after 3 days with 5 µg/ml antibody (flow cytometry): 59.2%
reduction of live mDC2 in human PBMCs after 3 days with 5 µg/ml antibody (flow cytometry): 85%
reduction of pDCs in human PBMCs (flow cytometry): 50%
B1: IMMU-114 (antibody, from a related filing, IgG4, V domains shown)
VH: QVQLQQSGSELKKPGASVKVSCKASGFTFTNYGMNWVKQAPGQGLKWMGWINTYTREPTYADDFKGRFAFSLDTSVSTAYLQISSLKADDTAVYFCARDITAVVPTGFDYWGQGSLVTVSS
VL: DIQLTQSPSSLSASVGDRVTITCRASENIYSNLAWYRQKPGKAPKLLVFAASNLADGVPSRFSGSGSGTDYTFTISSLQPEDIATYYCQHFWTTPWAFGGGTKLQIKR
